Measurements taken from patent US11597752B2, “Peptides and combination of peptides and scaffolds thereof for use in immunotherapy against colorectal carcinoma (CRC) and other cancers” (priority 2015, dated 2023).

Target: HLA-A*02:01 (Homo sapiens, UniProt P04439, D140Y/D185E/D98H/E176V/E277Q/G131W/G231S/I119V/I121R/I166T/I218V/L300P/L318F/N151K/N90K/P208A/P217A/Q86G/Q94H/R138H/R169H/T345S)
Experiment: MHC binding assay (UV-ligand exchange, beta2m ELISA, peptide exchange yield)
Details: binding to HLA-A*02:01, β2m ELISA
Source text: Candidate peptides for T cell based therapies according to the present invention were further tested for their MHC binding capacity (affinity). The individual peptide-MHC complexes were produced by UV-ligand exchange, where a UV-sensitive peptide is cleaved upon UV-irradiation, and exchanged with the peptide of interest as analyzed. Only peptide candidates that can effectively bind and stabilize the peptide-receptive MHC molecules prevent dissociation of the MHC complexes. To determine the yield of the exchange reaction, an ELISA was performed based on the detection of the light chain (β2m) of stabilized MHC complexes. The assay was performed as generally described in Rodenko et al. (Rodenko et al., 2006).
96 well MAXISorp plates (NUNC) were coated over night with 2 ug/ml streptavidin in PBS at room temperature, washed 4× and blocked for 1 h at 37° C. in 2% BSA containing blocking buffer. Refolded HLA-A*02:01/MLA-001 monomers served as standards, covering the range of 15-500 ng/ml. Peptide-MHC monomers of the UV-exchange reaction were diluted 100 fold in blocking buffer. Samples were incubated for 1 h at 37° C., washed four times, incubated with 2 ug/ml HRP conjugated anti-β2m for 1 h at 37° C., washed again and detected with TMB solution that is stopped with […]. Absorption was measured at 450 nm. Candidate peptides that show a high exchange yield (preferably higher than 50%, most preferred higher than 75%) are generally preferred for a generation and production of antibodies or fragments thereof, and/or T cell receptors or fragments thereof, as they show sufficient avidity to the MHC molecules and prevent dissociation of the MHC complexes.

Row | Peptide exchange (MHC class I binding score, peptide exchange yield) | Substance
1 | “+++” (≥50 = +++) | 169 (YLAHFIEGL; listed as Homo sapiens) [compound 169]
2 | “+++” (≥50 = +++) | 161 (FLKNELDNV; listed as Homo sapiens) [compound 161]
3 | “+++” (≥50 = +++) | 8 (ALMLQGVDLL; listed as Homo sapiens) [compound 8]
4 | “+++” (≥50 = +++) | 76 (YLIGEKQHYL; listed as Homo sapiens) [compound 76]
5 | “+++” (≥50 = +++) | 167 (SVIDHIHLISV; listed as Homo sapiens) [compound 167]
6 | “++” (≥20% = ++) | 43 (TLDAAQPRV; listed as Homo sapiens) [compound 43]
7 | “+++” (≥50 = +++) | 155 (RLLGEEVVRV; listed as Homo sapiens) [compound 155]
8 | “+++” (≥50 = +++) | 110 (LLGELPRLLLL; listed as Homo sapiens) [compound 110]
9 | “+” (≥10% = +) | 114 (TAVGHALVL; listed as Homo sapiens) [compound 114]
10 | “+++” (≥50 = +++) | 15 (LQLDKEFQL; listed as Homo sapiens) [compound 15]
11 | “++” (≥20% = ++) | 176 (RTLDKVLEV; listed as Homo sapiens) [compound 176]
12 | “++++” (≥75% = ++++) | 164 (KMLDEILLQL; listed as Homo sapiens) [compound 164]
13 | “+++” (≥50 = +++) | 166 (GLLEARGILGL; listed as Homo sapiens) [compound 166]
14 | “++” (≥20% = ++) | 75 (EMIENIQSV; listed as Homo sapiens) [compound 75]
15 | “+++” (≥50 = +++) | 189 (AISEVIGKITA; listed as Homo sapiens) [compound 189]
16 | “++” (≥20% = ++) | 98 (AMNGKSFSV; listed as Homo sapiens) [compound 98]
17 | “+++” (≥50 = +++) | 173 (KLGDLMVLL; listed as Homo sapiens) [compound 173]
18 | “+++” (≥50 = +++) | 105 (YALDLSTFL; listed as Homo sapiens) [compound 105]
19 | “+++” (≥50 = +++) | 19 (RLYTKLLNEA; listed as Homo sapiens) [compound 19]
20 | “++” (≥20% = ++) | 26 (GLASKENFSNVSL; listed as Homo sapiens) [compound 26]
21 | “++” (≥20% = ++) | 66 (GLDDGPDFL; listed as Homo sapiens) [compound 66]

Row | Peptide exchange (MHC class I binding score, peptide exchange yield) | Substance
22 | “+++” (≥50 = +++) | 17 (ALAAARVEL; listed as Homo sapiens) [compound 17]
23 | “+++” (≥50 = +++) | 185 (VLYTGVVRV; listed as Homo sapiens) [compound 185]
24 | “+++” (≥50 = +++) | 153 (ILFSEDSTKLFV; listed as Homo sapiens) [compound 153]
25 | “++” (≥20% = ++) | 48 (FLDASDPAL; listed as Homo sapiens) [compound 48]
26 | “+++” (≥50 = +++) | 154 (KLPSETIFVGC; listed as Homo sapiens) [compound 154]
27 | “++++” (≥75% = ++++) | 156 (SLMMTIINL; listed as Homo sapiens) [compound 156]
28 | “+++” (≥50 = +++) | 106 (SLISEKILL; listed as Homo sapiens) [compound 106]
29 | “++” (≥20% = ++) | 60 (VLDEDEPRFL; listed as Homo sapiens) [compound 60]
30 | “+++” (≥50 = +++) | 129 (VLIDVLKEL; listed as Homo sapiens) [compound 129]
31 | “++” (≥20% = ++) | 96 (KLYSRLVYV; listed as Homo sapiens) [compound 96]
32 | “+++” (≥50 = +++) | 118 (LLADLKTMV; listed as Homo sapiens) [compound 118]
33 | “+++” (≥50 = +++) | 50 (TLMAEMHVV; listed as Homo sapiens) [compound 50]
34 | “+++” (≥50 = +++) | 71 (RLWTEIPTAI; listed as Homo sapiens) [compound 71]
35 | “++” (≥20% = ++) | 62 (YLAPENGYL; listed as Homo sapiens) [compound 62]
36 | “++” (≥20% = ++) | 78 (ALDPELLLL; listed as Homo sapiens) [compound 78]
37 | “+++” (≥50 = +++) | 13 (FLLAEDTKV; listed as Homo sapiens) [compound 13]
38 | “+++” (≥50 = +++) | 168 (GLIRFPLMTI; listed as Homo sapiens) [compound 168]
39 | “++” (≥20% = ++) | 63 (KLFSILSTV; listed as Homo sapiens) [compound 63]
40 | “+++” (≥50 = +++) | 184 (SLLDENNVSSYL; listed as Homo sapiens) [compound 184]
41 | “+++” (≥50 = +++) | 170 (ALAGGITMV; listed as Homo sapiens) [compound 170]
42 | “++” (≥20% = ++) | 56 (VLFTDEGVPKFL; listed as Homo sapiens) [compound 56]

Row | Peptide exchange (MHC class I binding score, peptide exchange yield) | Substance
43 | “+++” (≥50 = +++) | 100 (SLDDFLATA; listed as Homo sapiens) [compound 100]
44 | “+++” (≥50 = +++) | 121 (SLAPNIISQL; listed as Homo sapiens) [compound 121]
45 | “++” (≥20% = ++) | 152 (KLLAVIHEL; listed as Homo sapiens) [compound 152]
46 | “+++” (≥50 = +++) | 94 (KSMDIVLTV; listed as Homo sapiens) [compound 94]
47 | “+++” (≥50 = +++) | 81 (ALLSQQTHL; listed as Homo sapiens) [compound 81]
48 | “++” (≥20% = ++) | 171 (RLQETEGMVAV; listed as Homo sapiens) [compound 171]
49 | “+++” (≥50 = +++) | 83 (LTIEDGIFEV; listed as Homo sapiens) [compound 83]
50 | “+++” (≥50 = +++) | 175 (TLLGGKEAQALGV; listed as Homo sapiens) [compound 175]
51 | “+++” (≥50 = +++) | 177 (ALLQGAIESV; listed as Homo sapiens) [compound 177]
52 | “++” (≥20% = ++) | 109 (ALDGDQMEL; listed as Homo sapiens) [compound 109]
53 | “+++” (≥50 = +++) | 148 (RLLENMTEVV; listed as Homo sapiens) [compound 148]
54 | “++” (≥20% = ++) | 82 (QLYEEPDTKL; listed as Homo sapiens) [compound 82]
55 | “++” (≥20% = ++) | 14 (FLDKPEDVLL; listed as Homo sapiens) [compound 14]
56 | “+++” (≥50 = +++) | 122 (SLMGMVLKL; listed as Homo sapiens) [compound 122]
57 | “++++” (≥75% = ++++) | 93 (SLQELRLLL; listed as Homo sapiens) [compound 93]
58 | “+++” (≥50 = +++) | 101 (GLSEGHTFQV; listed as Homo sapiens) [compound 101]
59 | “+++” (≥50 = +++) | 4 (RLAELTVDEFL; listed as Homo sapiens) [compound 4]
60 | “+++” (≥50 = +++) | 34 (ILLEKSVSV; listed as Homo sapiens) [compound 34]
61 | “++” (≥20% = ++) | 86 (KVFPGKISV; listed as Homo sapiens) [compound 86]
